# Laboratory results reported in ChEMBL document CHEMBL2074001, “Competition of hydrophobic peptides, cytotoxic drugs, and chemosensitizers on a common P-glycoprotein pharmacophore as revealed by its ATPase activity” (J Biol Chem, 1996).
# Tests used:
# [1] = tested on: CC[C@H]1CN2CCc3cc(OC)c(OC)cc3[C@@H]2C[C@@H]1C[C@H]1NCCc2cc(OC)c(OC)cc21; test: (§1) TP_TRANSPORTER: ATP hydrolysis in reconstituted proteoliposomes; format: functional, subcellular
# [2] = tested on: CC(C)[C@@H]1NC(=O)[C@H](C)OC(=O)[C@@H](C(C)C)NC(=O)[C@@H](C(C)C)OC(=O)[C@H](C(C)C)NC(=O)[C@H](C)OC(=O)[C@@H](C(C)C)NC(=O)[C@@H](C(C)C)OC(=O)[C@H](C(C)C)NC(=O)[C@H](C)OC(=O)[C@@H](C(C)C)NC(=O)[C@@H](C(C)C)OC1=O; test: as §1; format: functional, subcellular
substance,measurement,setting,value
ATP-dependent translocase ABCB1 (Homo sapiens),Km,[1],6 µM
same,Km,[2],1 µM
